The series concerns the target T1, PF3D7_0420300 D1 (Plasmodium falciparum, UniProt Q8I1N6 1956-2015).
T1 sequence: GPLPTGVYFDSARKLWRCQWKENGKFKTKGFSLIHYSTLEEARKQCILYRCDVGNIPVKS
In words: gcPBM; about 25 ug protein; PBS, 1% milk, 0.2 mg/ml BSA, salmon testes DNA, 0.03% Triton X-100. The following applies: tags: N-terminal GST (pGEX-4T-1), kept; label: surface-attached array probe.

B1: CACACA_negctrl_site1280 (dsDNA)
DNA 1: TTATTAAGTAAATCACATTTAATTTTTTTTTTTTTT
DNA 2: AAAAAAAAAAAAAATTAAATGTGATTTACTTAATAA
For the molecule B1, the binding signal is 8.82 ln median PBM intensity, better of two orientations.

B2: CACACA_negctrl_site1638 (dsDNA)
DNA 1: ACATGTATACTTTTTACGAAAAAAAAAAAAAAAAAA
DNA 2: TTTTTTTTTTTTTTTTTTCGTAAAAAGTATACATGT
For B2, the binding signal was 8.58 ln median PBM intensity, better of two orientations.

B3: CACACA_negctrl_site1550 (dsDNA)
DNA 1: TAAAATTAATAAAATATTTTCACTTAATATATATAA
DNA 2: TTATATATATTAAGTGAAAATATTTTATTAATTTTA
Take B3: the binding signal was 8.87 ln median PBM intensity, better of two orientations.

B4: CACACA_negctrl_site146 (dsDNA)
DNA 1: TTTATAAAAAATTTTTTTTTTTTTTTTTAAATATAT
DNA 2: ATATATTTAAAAAAAAAAAAAAAAATTTTTTATAAA
For the molecule B4, the binding signal is 8.66 ln median PBM intensity, better of two orientations.

B5: CACACA_negctrl_site1119 (dsDNA)
DNA 1: ATTTTTTTTTTTTTTTTTTTTTTTTGGAGAAAGAGA
DNA 2: TCTCTTTCTCCAAAAAAAAAAAAAAAAAAAAAAAAT
Turning to B5, the binding signal was 8.63 ln median PBM intensity, better of two orientations.

B6: CACACA_negctrl_site1272 (dsDNA)
DNA 1: ATTTTTTTTTTTTTTTTTTTTTTTTAGATTAAGAAA
DNA 2: TTTCTTAATCTAAAAAAAAAAAAAAAAAAAAAAAAT
Turning to B6, the binding signal was 8.84 ln median PBM intensity, better of two orientations.

B7: CACACA_negctrl_site17 (dsDNA)
DNA 1: AAAAGAAAAAAAAAAAAAAAAAAAATTAAAATATAA
DNA 2: TTATATTTTAATTTTTTTTTTTTTTTTTTTTCTTTT
As to B7, the binding signal is 8.84 ln median PBM intensity, better of two orientations.

B8: CACACA_negctrl_site307 (dsDNA)
DNA 1: TATTCTATAAATATATTTTTTTAATTTTTTATTTTA
DNA 2: TAAAATAAAAAATTAAAAAAATATATTTATAGAATA
On to B8, for which the binding signal was 8.77 ln median PBM intensity, better of two orientations.

B9: CACACA_negctrl_site641 (dsDNA)
DNA 1: TCTTGACGAAGTAGAAGGATATATATATAAAAAAAA
DNA 2: TTTTTTTTATATATATATCCTTCTACTTCGTCAAGA
Regarding B9, the binding signal is 8.88 ln median PBM intensity, better of two orientations.

B10: CACACA_negctrl_site27 (dsDNA)
DNA 1: TTTTTTGGGTAAAATTATAAAATATGTATATATAAA
DNA 2: TTTATATATACATATTTTATAATTTTACCCAAAAAA
As for B10, the binding signal is 8.81 ln median PBM intensity, better of two orientations.

B11: CACACA_negctrl_site1218 (dsDNA)
DNA 1: TAATTTTTTTTTTTTTTTTTTTTTTTTTTTTTTTTA
DNA 2: TAAAAAAAAAAAAAAAAAAAAAAAAAAAAAAAATTA
In the case of B11, the binding signal was 8.72 ln median PBM intensity, better of two orientations.

B12: CACACA_negctrl_site1120 (dsDNA)
DNA 1: TCTCAAAAAAAAAAAAAAAAAAAAAAATTAAAAAAT
DNA 2: ATTTTTTAATTTTTTTTTTTTTTTTTTTTTTTGAGA
Consider B12, for which the binding signal is 8.78 ln median PBM intensity, better of two orientations.

B13: CACACA_negctrl_site392 (dsDNA)
DNA 1: TGGTCTTTTAAACAAAAATATAAATTTTTAAATATG
DNA 2: CATATTTAAAAATTTATATTTTTGTTTAAAAGACCA
On to B13, for which the binding signal was 8.76 ln median PBM intensity, better of two orientations.

B14: CACACA_negctrl_site1696 (dsDNA)
DNA 1: TTCCTTCAAAATTTAAGTAATAAGATAAAAATATAA
DNA 2: TTATATTTTTATCTTATTACTTAAATTTTGAAGGAA
Regarding B14, the binding signal was 8.8 ln median PBM intensity, better of two orientations.

B15: CACACA_site319 (dsDNA)
DNA 1: TATGTAACCTGTTTTACACACCCCCACCCCCCTCTT
DNA 2: AAGAGGGGGGTGGGGGTGTGTAAAACAGGTTACATA
For the molecule B15, the binding signal was 10.7 ln median PBM intensity, better of two orientations.

B16: CACACA_negctrl_site916 (dsDNA)
DNA 1: TTTTTAAATAACCTATATATTATTATGAAACATAAA
DNA 2: TTTATGTTTCATAATAATATATAGGTTATTTAAAAA
As to B16, the binding signal was 8.75 ln median PBM intensity, better of two orientations.

B17: CACACA_negctrl_site1508 (dsDNA)
DNA 1: TTTTACTCTTAAAATAATAAAAAATATTCACATTTA
DNA 2: TAAATGTGAATATTTTTTATTATTTTAAGAGTAAAA
As for B17, the binding signal was 8.65 ln median PBM intensity, better of two orientations.

B18: CACACA_negctrl_site553 (dsDNA)
DNA 1: TTTTTATATTATTTAATGAGAAATAATTATAAACAA
DNA 2: TTGTTTATAATTATTTCTCATTAAATAATATAAAAA
Turning to B18, the binding signal was 8.82 ln median PBM intensity, better of two orientations.

B19: CACACA_negctrl_site892 (dsDNA)
DNA 1: TTAATATATAATAAATTTTTTTTTTTTTTTTTTTTT
DNA 2: AAAAAAAAAAAAAAAAAAAAATTTATTATATATTAA
With B19, the binding signal was 8.85 ln median PBM intensity, better of two orientations.

B20: CACACA_negctrl_site681 (dsDNA)
DNA 1: CACAAAGGTCTGAAATTTTAGGGGTGCCTGGGACTA
DNA 2: TAGTCCCAGGCACCCCTAAAATTTCAGACCTTTGTG
As for B20, the binding signal was 8.87 ln median PBM intensity, better of two orientations.

B21: CACACA_negctrl_site558 (dsDNA)
DNA 1: TTTTTTATATTAAATGAAGAATATACAAAATTTTAA
DNA 2: TTAAAATTTTGTATATTCTTCATTTAATATAAAAAA
With B21, the binding signal is 8.73 ln median PBM intensity, better of two orientations.

B22: CACACA_negctrl_site1137 (dsDNA)
DNA 1: ATTATAAAAGAATTTTTTTTTATTTCATTAAAATAT
DNA 2: ATATTTTAATGAAATAAAAAAAAATTCTTTTATAAT
In the case of B22, the binding signal was 8.74 ln median PBM intensity, better of two orientations.

B23: CACACA_negctrl_site1541 (dsDNA)
DNA 1: TGCTAATAATTATTTGTTTAGCAACAAAAAAAAAAA
DNA 2: TTTTTTTTTTTGTTGCTAAACAAATAATTATTAGCA
Regarding B23, the binding signal was 8.69 ln median PBM intensity, better of two orientations.

B24: CACACA_negctrl_site1078 (dsDNA)
DNA 1: TAAATTCTTTAAAACTTTAAAACAAAAAAAAAAAAA
DNA 2: TTTTTTTTTTTTTGTTTTAAAGTTTTAAAGAATTTA
B24: the binding signal is 8.74 ln median PBM intensity, better of two orientations.

B25: CACACA_site2222 (dsDNA)
DNA 1: GGAAAAAATATATGCACACCCCCCAAAAAAAAAAAA
DNA 2: TTTTTTTTTTTTGGGGGGTGTGCATATATTTTTTCC
As to B25, the binding signal is 10.7 ln median PBM intensity, better of two orientations.

B26: CACACA_negctrl_site1331 (dsDNA)
DNA 1: AATATAATCTTTCAAAAGAAAAAGACTTCATGAAAA
DNA 2: TTTTCATGAAGTCTTTTTCTTTTGAAAGATTATATT
As for B26, the binding signal was 8.86 ln median PBM intensity, better of two orientations.

B27: CACACA_negctrl_site219 (dsDNA)
DNA 1: GCAAAACATTTTTAAAATAAAAATAATAAAATATAT
DNA 2: ATATATTTTATTATTTTTATTTTAAAAATGTTTTGC
Regarding B27, the binding signal is 8.88 ln median PBM intensity, better of two orientations.

B28: CACACA_site8429 (dsDNA)
DNA 1: TAAGAAATAAATAGTACACACATAGACACCCACCCA
DNA 2: TGGGTGGGTGTCTATGTGTGTACTATTTATTTCTTA
As to B28, the binding signal was 10.6 ln median PBM intensity, better of two orientations.

B29: CACACA_negctrl_site514 (dsDNA)
DNA 1: AGATTTCAAGGTAATAGATCAATTTTAATTTGTAAA
DNA 2: TTTACAAATTAAAATTGATCTATTACCTTGAAATCT
Turning to B29, the binding signal is 8.83 ln median PBM intensity, better of two orientations.

B30: CACACA_negctrl_site510 (dsDNA)
DNA 1: TAATATCTAAAAAATATATTTTTTATTTTTTATTAA
DNA 2: TTAATAAAAAATAAAAAATATATTTTTTAGATATTA
Take B30: the binding signal is 8.86 ln median PBM intensity, better of two orientations.
